This is an account of results in paper PMC10030352.

One may read the stoichiometry N as the number of molecules, sites or subunits per partner or assembly.

The target of this experiment is human NCC_(cryo1) (human) (UniProt P55017). Briefly: cryo-EM structure.

In turn, “human NCC_(cryo1) (from UniProt P55017 1-1021) (natural protein)” displayed a stoichiometry N of 2.
